We go through three molecules from US20230080534A1 (SHANGHAI BIOTROY BIOTECHNIQUE, published 2023).

No end group written: not given here. Where only a bound is given, the exact number is not on record here.

The target of assay [1] is T1, human SEMG2 full-length protein (human, UniProt Q02383 24-582, limits assumed).
T1 construct: also called SEMG2 protein; semenogelin 2
T1 sequence: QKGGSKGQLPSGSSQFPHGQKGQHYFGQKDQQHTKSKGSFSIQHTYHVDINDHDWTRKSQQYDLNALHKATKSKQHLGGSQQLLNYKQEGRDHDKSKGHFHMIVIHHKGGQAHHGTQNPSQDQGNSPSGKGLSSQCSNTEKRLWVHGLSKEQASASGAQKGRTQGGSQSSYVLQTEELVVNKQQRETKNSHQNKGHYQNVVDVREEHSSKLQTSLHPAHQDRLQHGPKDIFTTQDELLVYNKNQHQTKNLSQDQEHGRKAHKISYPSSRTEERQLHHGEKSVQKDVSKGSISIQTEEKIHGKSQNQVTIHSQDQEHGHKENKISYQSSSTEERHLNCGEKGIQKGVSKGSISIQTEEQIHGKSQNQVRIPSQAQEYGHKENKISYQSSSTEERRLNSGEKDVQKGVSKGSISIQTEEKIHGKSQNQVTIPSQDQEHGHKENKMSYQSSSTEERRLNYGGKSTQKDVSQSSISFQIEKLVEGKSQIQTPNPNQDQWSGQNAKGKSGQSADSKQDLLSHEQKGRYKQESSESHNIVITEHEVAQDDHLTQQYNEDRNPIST
In words: ELISA (FIG. 21B-D).

The target of assay [2] is T2, BSA-conjugated human SEMG2 (497-509) polypeptide (human, also: coupled to BSA, site not given here).
T2 peptide: QIEKLVEGKSQIQ
The assay is described as follows: ELISA (FIG. 21B-D).

The target of assay [3] is T1, human SEMG2 full-length protein. In words: ELISA on SEMG2; the EC50 table prints no unit, the axis is log (antibody concentration, nM). In general terms: An ELISA detects its analyte on a solid surface through an enzyme-linked reagent.
Assay [4] concerns the target T2, BSA-conjugated human SEMG2 (497-509) …. In words: ELISA on BSA-S2 (497-509); the EC50 table prints no unit, the axis is log (antibody concentration, nM).
Assay [5] has as its target T3, QAEKLVEGKSQIQ (not fully specified).
T3 construct: member of the group m41; the text speaks of glycine substitution, the sheet prints alanine
T3 peptide: QAEKLVEGKSQIQ
The assay is described as follows: ELISA, immobilized peptide QAEKLVEGKSQIQ
An excerpt:
(§1) FIG. 20 depicts the value detected by ELISA, i.e., OD₄₅₀ absorbance. […] This experiment is used to determine the precise amino acid epitopes that different monoclonal antibodies bind to, and the relative importance of each amino acid to the binding antibody.

The target of assay [6] is T4, QIEKLVEGKSQIA (not fully specified).
T4 construct: alanine at this position
T4 peptide: QIEKLVEGKSQIA
In words: ELISA, immobilized peptide QIEKLVEGKSQIA
Description: as §1

Assay [7] has as its target T5, QIEKLAEGKSQIQ (not fully specified).
T5 construct: member of the group m41; the text speaks of glycine substitution, the sheet prints alanine
T5 peptide: QIEKLAEGKSQIQ
The assay is described as follows: ELISA, immobilized peptide QIEKLAEGKSQIQ
Description: as §1

The target in assay [8] is T6, QIEKLVEGKSAIQ (not fully specified).
T6 construct: alanine at this position
T6 peptide: QIEKLVEGKSAIQ
The assay is described as follows: ELISA, immobilized peptide QIEKLVEGKSAIQ
Description: as §1

The target in assay [9] is T7, QIEKLVEGKSQAQ (not fully specified).
T7 construct: member of the group m41; the text speaks of glycine substitution, the sheet prints alanine
T7 peptide: QIEKLVEGKSQAQ
The assay is described as follows: ELISA, immobilized peptide QIEKLVEGKSQAQ
Description: as §1

The target in assay [10] is T8, QIEKLVAGKSQIQ (not fully specified).
T8 construct: member of the group m41; the text speaks of glycine substitution, the sheet prints alanine
T8 peptide: QIEKLVAGKSQIQ
The assay is described as follows: ELISA, immobilized peptide QIEKLVAGKSQIQ
Description: as §1
To further precisely define the exact epitopes (specific to the level of single amino acid) to which blocking antibodies MM02, MM05, MM07, MM08, MM13, MM14 bind, corresponding ELISA analysis method was established. […] Anti-mouse or anti-rabbit secondary antibodies were then used to detect the corresponding bound antibodies.

Assay [11] addresses T1, human SEMG2 full-length protein. The assay is described as follows: biolayer interferometry (ForteBio Blitz or Gator). A digest of the protocol:
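KD of antibodies binding human SEMG2 measured by biolayer interferometry, with antibody and SEMG2 in SD buffer. KD derived by binding-curve analysis.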
For orientation: Biolayer interferometry detects binding as a change in optical thickness at a sensor tip.

Assay [12] deals with T9, SEMG2(354-403) fragment (human).
T9 peptide: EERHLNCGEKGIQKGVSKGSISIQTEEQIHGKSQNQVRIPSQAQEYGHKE
In words: ELISA, immobilized antigen SEMG2 (354-403). From the text:
(§2) To clearly distinguish the binding epitopes of blocking antibodies (i.e., antibodies that can inhibit the binding between SEMG2 and CD27) and non-blocking antibodies, a corresponding ELISA analysis method was established. […] Anti-mouse or anti-rabbit secondary antibodies were then used to detect the corresponding bound antibodies.

Assay [13] concerns the target T2, BSA-conjugated human SEMG2 (497-509) …. In words: ELISA on BSA-SEMG2 (497-509), antibody titrated.
Assay [14] has as its target T10, QIEKAVEGKSQIQ (not fully specified).
T10 construct: alanine at this position
T10 peptide: QIEKAVEGKSQIQ
The assay is described as follows: ELISA, immobilized peptide QIEKAVEGKSQIQ
Description: as §1

Assay [15] addresses T11, QIEKLVEAKSQIQ
T11 construct: member of the group m41; position 504 is glycine in SEMG2 and the sheet prints alanine there
T11 peptide: QIEKLVEAKSQIQ
The assay is described as follows: ELISA, immobilized peptide QIEKLVEAKSQIQ
Description: as §1

The target of assay [16] is T12, QIEKLVEGKAQIQ (not fully specified).
T12 construct: alanine at this position
T12 peptide: QIEKLVEGKAQIQ
In words: ELISA, immobilized peptide QIEKLVEGKAQIQ
Description: as §1

Assay [17] addresses T13, AIEKLVEGKSQIQ (not fully specified).
T13 construct: member of the group m41; the text speaks of glycine substitution, the sheet prints alanine
T13 peptide: AIEKLVEGKSQIQ
The assay is described as follows: ELISA, immobilized peptide AIEKLVEGKSQIQ
Description: as §1

Assay [18] has as its target T14, QIEKLVEGASQIQ (not fully specified).
T14 construct: member of the group m41; the text speaks of glycine substitution, the sheet prints alanine
T14 peptide: QIEKLVEGASQIQ
The assay is described as follows: ELISA, immobilized peptide QIEKLVEGASQIQ
Description: as §1

Assay [19] addresses T15, SEMG2(563-574) fragment (human).
T15 peptide: VAQDDHLTQQYN
In words: ELISA, immobilized antigen SEMG2 (563-574).
Description: as §2

Assay [20] concerns the target T1, human SEMG2 full-length protein. In words: ELISA, plate coated with SEMG2 protein, anti-mouse secondary antibody; the EC50 table prints no unit, the axis is log (antibody concentration, nM).
Assay [21] has the same target. In words: ELISA, immobilized antigen SEMG2 (1-582).
Description: as §2

Assay [22] concerns the target T16, SEMG2(497-509) polypeptide QIEKLVEGKSQIQ (human).
T16 peptide: QIEKLVEGKSQIQ
The assay is described as follows: ELISA, immobilized antigen SEMG2 (497-509).
Description: as §2

Assay [23] concerns the target T17, QIAKLVEGKSQIQ (not fully specified).
T17 construct: member of the group m41; the text speaks of glycine substitution, the sheet prints alanine
T17 peptide: QIAKLVEGKSQIQ
The assay is described as follows: ELISA, immobilized peptide QIAKLVEGKSQIQ

The target of assay [24] is T18, SEMG2(442-453) fragment (human).
T18 peptide: IHGKSQNQVTIP
The assay is described as follows: ELISA, immobilized antigen SEMG2 (442-453).
Description: as §2

Assay [25] has as its target T19, QIEALVEGKSQIQ (not fully specified).
T19 construct: member of the group m41; the text speaks of glycine substitution, the sheet prints alanine
T19 peptide: QIEALVEGKSQIQ
In words: ELISA, immobilized peptide QIEALVEGKSQIQ
Description: as §1

Assay [26] deals with T16, SEMG2(497-509) polypeptide QIEKLVEGKSQIQ
In words: ELISA, immobilized peptide QIEKLVEGKSQIQ
Description: as §1

In assay [27] the target is T1, human SEMG2 full-length protein. The assay is described as follows: ELISA on SEMG2 protein, run beside the humanized antibodies; the EC50 table prints no unit, the axis is log (antibody concentration, nM).

B1: 96-10R-10 (antibody, V domains shown)
VH: QVQLLESGGGLVQPGGSLRLSCSASGFTFSSRAMHWVRQAPGKGLEYVSAISSNGGSTYYADSVKGRFTISRDNSKNTLYLQMSSLRAEDTAVYYCVIEGGSTGSTTSGAFDIWGQGTMVTVSS
VL: DIQMIQSPPSVSASVGDTVTIACRANQGIDSWLAWYQQKPGRAPKLLIYSASRLQSGVPSRFSGGGSGTDFALTISNLQPEDFATYYCQQALSLPITFGQGTRLEIK
Turning to B1, the “fold higher affinity than the parent antibody (H88-96)” value in assay [1] and in [2] was > 10 fold each time. Also, the EC50 – broadly, the concentration giving half of the maximal effect – was 0.241 nM in assay [3] and 3.36 nM in [4].

B2: MM02 (antibody, IgG2b, V domains shown)
VH: QIQLVQSGPEVKKPGETVRISCKASGYTLTTAGIQWVQKMPGKGLKWIGWINTHSGVPEYAEDFKGRFAFFLETSASTAYLQISNLKNEDTATYFCARLGLLGYWGQGTTLTVSS
VL: DILLTQSPAILSVSPGERVSFSCRASQSIGTTIHWYQQRTNGSPRLLIKYASESISGIPSRFSGSGSGTDFTLSINSVESEDIADYYCQQSNSWPWTFGGGTKLEIKR
On to B2, for which the OD450 absorbance worked out at 0.541 in assay [5]; 1.15 in assay [6]; 0.928 in [7]; 1.26 in assay [8]; 0.894 in [9]; 0.48 in assay [10]. The OD450 absorbance in [14] was determined as 0.051; in [15], 0.766; in assay [16], 0.173; in assay [17], 0.45; in assay [18] it was 0.949; in assay [23], 0.788. Also, the OD450 absorbance in assay [25] was 0.47; in assay [26] it was 1.26. For the same molecule, the equilibrium dissociation constant (Kd) (commonly the equilibrium constant for the complex coming apart) in assay [11] was 1.33 nM. For the same molecule, the A450 absorbance in assay [12] came to 0.004; in assay [19], 0.005; in assay [21], 1.2; in assay [22], 1.18; in assay [24], 0.001. Moreover, the binding result in assay [12], in assay [19] and in [24] was “no binding” in each case. The EC50 (read off the curve) (usually the concentration giving half of the maximal effect) in assay [13] is ~4 ng/mL. The same molecule had an EC50 in [20] of 0.176 nM.

B3: MM05 (antibody, IgG1, V domains shown)
VH: QVQLQQPGAELVRPGASVKLSCEASGYTFTSYWMNWVKQRPGQGLEWIGMIDPSDSETHYNQMFKDKATLTVDKSSSTAYMQLSSLTSEDSAVYYCARYLGGKEGSFDYWGQGTTLTVSS
VL: DIVMSQSPSSLAVSAGEKVTMSCKSSQSLLNSRTRKNYLAWYQQKPGQSPKLLIYWASTRESGVPDRFTGSGSGTDFTLTISSVQAEDLAVYYCKQSYSLPWTFGGGTKLEIKR
Consider B3, for which the OD450 absorbance in [5] came out at 0.796; in [6], 1.21; in [7], 0.558; in assay [8] it was 1.26; in [9], 0.868; in assay [10], 0.615. For the same molecule, the OD450 absorbance in assay [14] was 0.259; in assay [15] it was 0.723; in assay [16] it was 0.168; in assay [17], 0.638; in assay [18] it was 0.852; in assay [23], 0.728. For the same molecule, the OD450 absorbance in assay [25] worked out at 0.726; in assay [26], 1.27. Besides, in [11], the Kd was found to be 5.28 nM. Besides, the A450 absorbance in assay [12] was determined as 0.008; in assay [21] it was 1.17; in assay [22], 1.17; in assay [24], 0.009. Besides, the binding result in [12], in assay [19] and in assay [24] was “no binding” each time. Moreover, in assay [13], the “EC50 (read off the curve)” value is ~8 ng/mL. For the same molecule, the results for the concentration for a half-maximal effect (EC50) in assay [20] and in assay [27] were 0.535 nM and 0.147 nM, respectively.
